What is called Kd is the concentration at which binding is half-saturated. A high value points to weaker binding.

In assay [1] the target is GDP-tubulin (biotinylated α/β-tubulin heterodimer with GDP-bound β-tubulin) (UniProt Q71U36).
The target is the same in assay [2]. Nature of the assay: pull-down; supernatant depletion at equilibrium, same assay as for GTP-tubulin but with bead-bound GDP-tubulin; BuGZ construct (or mEGFP control) in solution; fit with Equation S2 for wild-type BuGZ.
For assay [3], the target named is GTP-tubulin (biotinylated α/β-tubulin heterodimer with GTP-bound β-tubulin) (UniProt Q71U36). Nature of the assay: pull-down; supernatant depletion at equilibrium; varying concentrations of biotinylated GTP-tubulin on streptavidin-coated magnetic beads; BuGZ construct (or mEGFP control) in solution, BuGZ 1.19 μM; 4 °C; nocodazole present; depletion from the supernatant measured by immunoblotting. For orientation: A western blot detects proteins with antibodies after separation by electrophoresis.

The substance “BuGZ-ΔGLEBS (from UniProt Q7ZXV8 1-452) (natural protein)” showed a GTP α-32P incorporation into GDP-tubulin at equilibrium, increase relative to controls in assay [1] of 57.4%. Moreover, the Kd in assay [2] was 54.2 nM; in assay [3], 408 nM.

For the origin of these results see paper PMC12302650.
